Molecular target: the molecule itself
Assay: crystal structure

B1: GluA2 S1S2 flop (ligand-binding domain of rat GluA2o) (domain or fragment)
chain: GANKTVVVTTILESPYVMMKKNHEMLEGNERYEGYCVDLAAEIAKHCGFKYKLTIVGDGKYGARDADTKIWNGMVGELVYGKADIAIAPLTITLVREEVIDFSKPFMSLGISIMIKKGTPIESAEDLSKQTEIAYGTLDSGSTKEFFRRSKIAVFDKMWTYMRSAEPSVFVRTTAEGVARVRKSKGKYAYLLESTMNEYIEQRKPCDTMKVGGNLDSKGYGIATPKGSSLGNAVNLAVLKLNEQGLLDKLKNKWWYDKGECGS
Does B1 bind?
Result: binds
